In the supplement of paper PMC7877785:
± gives the uncertainty stated by the source.

Assay: self-splicing fitness, log relative to wild type (ln ratio); higher = more splicing; Tetrahymena group I intron in knt gene, E. coli kanamycin selection, DiMSum; sequences stand for … in CUCUCU…GGAGGGAAAAGUUAUCAGGCAUGCACCUGGUAGCUAGUCUUUAAACCAAUAGAUUGCAUCGGUUUAAAAGGCAAGACCGUCAAAUUGCGGGAAAGGGGUCAACAGCCGUUCAGUACCAAGUCUCAGGGGAAACUUUGAGAUGGCCUUGCAAAGGGUAUGGUAAUAAGCUGACGGACAUGGUCCUAACCACGCAGCCAAGUCCUAAGUCAACAGAUCUUCUGUUGAUAUGGAUGCAGUUCACAGACUAAAUGUCGGUCGGGGAAGAUGUAUUCUUCUCAUAAGAUAUAGUCGGACCUCUCCUUAAUGGGAGCUAGCGGAUGAAGUGAUGCAACACUGGAGCCGCUGGGAACUAAUUUGUAUGCGAAAGUAUAUUGAUUAGUUUUGGAGUACUCGUGGUCG
In short: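 Library with all eight P1ex-region intron nucleotides randomised, intron inside the knt kanamycin-resistance gene on pET-22b(+), in E. coli BL21(DE3). Cells grew overnight at 37°C or 30°C on LB agar with or without 25 μg/mL kanamycin (plus 100 μg/mL carbenicillin, 50 μM IPTG, 0.2% rhamnose), in six replicate transformations. Pooled colonies were amplicon-sequenced on Illumina HiSeq 2500. DiMSum fitness is the error-weighted combination of wild-type-normalised replicate fold changes, kanamycin versus none.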

Row | Sequence | self-splicing fitness (ln) (30 °C) | self-splicing fitness (ln) (37 °C)
1 | AGGCAGCAAUAUUACGAAAG | -3.39 ± 0.22 | -2.46 ± 0.22
2 | CGUUAGCAAUAUUACGUGAG | -1.59 ± 0.087 | -0.0698 ± 0.13
3 | CUGGAGCAAUAUUACGUUGG | -2.89 ± 0.14 | -1.86 ± 0.15
4 | GUUUAGCAAUAUUACGCUCA | 0.0718 ± 0.14 | 0.432 ± 0.2
5 | AGUUAGCAAUAUUACGAAAC | – | -0.856 ± 0.39
6 | CUUAAGCAAUAUUACGUUGU | -3.89 ± 0.2 | -1.64 ± 0.15
7 | AUGCAGCAAUAUUACGCUCA | -0.858 ± 0.061 | -0.215 ± 0.075
8 | GUUCAGCAAUAUUACGACCU | 0.353 ± 0.16 | 0.115 ± 0.17
9 | GCACAGCAAUAUUACGGUCG | -0.697 ± 0.043 | -0.246 ± 0.057
10 | AUGAAGCAAUAUUACGACUG | -0.375 ± 0.097 | -0.617 ± 0.11
11 | CGGAAGCAAUAUUACGUACU | -0.218 ± 0.071 | -0.296 ± 0.096
12 | AUCUAGCAAUAUUACGGUGU | -2.17 ± 0.076 | -0.462 ± 0.081
13 | GCCCAGCAAUAUUACGAAAG | -2.48 ± 0.12 | -2.07 ± 0.19
14 | AUUUAGCAAUAUUACGUACG | -1.48 ± 0.19 | -1.66 ± 0.34
15 | GGCCAGCAAUAUUACGGGAG | -2.14 ± 0.13 | -0.796 ± 0.12
16 | CGCCAGCAAUAUUACGCGGC | -4.11 ± 0.47 | -3.03 ± 0.27
17 | GCCGAGCAAUAUUACGCUAA | -1.86 ± 0.2 | -2.62 ± 0.23
18 | CCUCAGCAAUAUUACGAUAU | -4.25 ± 0.25 | -0.929 ± 0.15
19 | CAGAAGCAAUAUUACGCCGG | -0.314 ± 0.13 | -0.619 ± 0.17
20 | CGGAAGCAAUAUUACGGGUA | -3.4 ± 0.23 | -2.07 ± 0.14
21 | AUAAAGCAAUAUUACGUAAA | -2.39 ± 0.11 | -1.03 ± 0.12
22 | AAGUAGCAAUAUUACGAUGA | -0.567 ± 0.14 | -0.511 ± 0.15
23 | CCUAAGCAAUAUUACGGGGA | -2.84 ± 0.15 | -1.92 ± 0.13
24 | GCGGAGCAAUAUUACGUAUA | – | -2.2 ± 0.44
25 | UUGCAGCAAUAUUACGCAUU | -1.92 ± 0.19 | -1.42 ± 0.18

Row | Sequence | self-splicing fitness (ln) (30 °C) | self-splicing fitness (ln) (37 °C)
26 | UUGCAGCAAUAUUACGCGAA | -0.925 ± 0.16 | -0.846 ± 0.14
27 | CCCGAGCAAUAUUACGAUGU | -3.46 ± 0.25 | -2.13 ± 0.27
28 | UACCAGCAAUAUUACGUAGA | -1.27 ± 0.072 | -0.78 ± 0.091
29 | AAGUAGCAAUAUUACGUACA | -0.476 ± 0.11 | -0.759 ± 0.14
30 | GUAAAGCAAUAUUACGCUAU | -1.22 ± 0.087 | -0.23 ± 0.1
31 | CUCAAGCAAUAUUACGUCGA | -3.37 ± 0.31 | -1.41 ± 0.18
32 | GGUAAGCAAUAUUACGGAUG | -3.57 ± 0.34 | -2.09 ± 0.18
33 | AUGUAGCAAUAUUACGACGU | -0.432 ± 0.087 | 0.442 ± 0.095
34 | ACGUAGCAAUAUUACGCUUU | -1.92 ± 0.058 | -1.11 ± 0.075
35 | UCUCAGCAAUAUUACGAUAG | -2.43 ± 0.15 | -0.737 ± 0.15
36 | CCGAAGCAAUAUUACGGAUG | -2.94 ± 0.19 | -0.504 ± 0.095
37 | AAUGAGCAAUAUUACGCAUG | -2.58 ± 0.17 | -0.519 ± 0.12
38 | UGCUAGCAAUAUUACGCGAA | -2.97 ± 0.32 | -1.88 ± 0.21
39 | ACAUAGCAAUAUUACGCCCA | -0.769 ± 0.13 | -0.85 ± 0.15
40 | CAUGAGCAAUAUUACGCAGC | -3.08 ± 0.38 | -2.32 ± 0.34
41 | CACUAGCAAUAUUACGUGAC | -2.12 ± 0.14 | -2.36 ± 0.19
42 | CCACAGCAAUAUUACGACUU | -4 ± 0.28 | -2.81 ± 0.27
43 | AGCGAGCAAUAUUACGACCA | -1.37 ± 0.22 | -1.08 ± 0.22
44 | UUAUAGCAAUAUUACGCAUG | -1.67 ± 0.25 | -0.364 ± 0.23
45 | CGAUAGCAAUAUUACGACGA | -1.5 ± 0.17 | -0.547 ± 0.15
46 | UGAGAGCAAUAUUACGGGGG | -3.4 ± 0.31 | -1.99 ± 0.22
47 | GGCUAGCAAUAUUACGGUAC | -1.91 ± 0.17 | -0.733 ± 0.14
48 | GCCGAGCAAUAUUACGUACC | -2.15 ± 0.13 | -0.678 ± 0.16
49 | GGACAGCAAUAUUACGAUCU | -2.62 ± 0.18 | -1.8 ± 0.2
50 | GUUCAGCAAUAUUACGAACU | -3.89 ± 0.14 | -2.56 ± 0.16

Row | Sequence | self-splicing fitness (ln) (30 °C) | self-splicing fitness (ln) (37 °C)
51 | GAAAAGCAAUAUUACGGUUC | -3.18 ± 0.11 | -2.88 ± 0.16
52 | UUACAGCAAUAUUACGGGCA | -1.01 ± 0.1 | -0.657 ± 0.11
53 | GUAGAGCAAUAUUACGGAUG | -3.96 ± 0.43 | -2.08 ± 0.36
54 | AAGGAGCAAUAUUACGUGCG | -2.36 ± 0.19 | -2.09 ± 0.23
55 | UAGUAGCAAUAUUACGCACA | -1.2 ± 0.1 | -0.493 ± 0.12
56 | CAAUAGCAAUAUUACGGAGG | -1.16 ± 0.07 | -1.26 ± 0.11
57 | CGCGAGCAAUAUUACGAAGU | -3.36 ± 0.21 | -2.57 ± 0.31
58 | ACUAAGCAAUAUUACGUAUC | -2.91 ± 0.15 | -2.15 ± 0.19
59 | GUCCAGCAAUAUUACGCUGA | -0.534 ± 0.092 | -0.466 ± 0.13
60 | CUUAAGCAAUAUUACGCCUC | -1.85 ± 0.22 | –
61 | UCCCAGCAAUAUUACGGAGG | -3.51 ± 0.14 | -2.23 ± 0.18
62 | AACCAGCAAUAUUACGUAGU | -1.99 ± 0.06 | -1.42 ± 0.071
63 | GUACAGCAAUAUUACGAGAG | -2.62 ± 0.29 | -2.64 ± 0.25
64 | CAAAAGCAAUAUUACGGGAC | -3.76 ± 0.35 | -1.71 ± 0.17
65 | CGGAAGCAAUAUUACGAUCU | -1.11 ± 0.12 | -0.942 ± 0.15
66 | AUUGAGCAAUAUUACGUCUC | – | -2.21 ± 0.42
67 | UGAAAGCAAUAUUACGCGUU | -3.19 ± 0.19 | -3.1 ± 0.29
68 | UGACAGCAAUAUUACGGGAU | -3.3 ± 0.17 | -2.94 ± 0.15
69 | UUAAAGCAAUAUUACGGUGC | -4.36 ± 0.42 | -2.14 ± 0.34
70 | CACUAGCAAUAUUACGGUAU | -3.41 ± 0.23 | -0.916 ± 0.13
71 | CCUAAGCAAUAUUACGCGCG | -3.42 ± 0.39 | -1.9 ± 0.25
72 | CACCAGCAAUAUUACGAUUG | -0.914 ± 0.046 | -0.088 ± 0.072
73 | AGGUAGCAAUAUUACGCUGG | -3.816 ± 0.035 | -2.83 ± 0.046
74 | AAUUAGCAAUAUUACGUACA | -0.782 ± 0.086 | -0.498 ± 0.096
75 | GUUAAGCAAUAUUACGAACA | -2.16 ± 0.29 | -1.32 ± 0.21

Row | Sequence | self-splicing fitness (ln) (30 °C) | self-splicing fitness (ln) (37 °C)
76 | AAGUAGCAAUAUUACGGUAC | -2.65 ± 0.18 | -1.75 ± 0.18
77 | AUCGAGCAAUAUUACGAAUA | -3.09 ± 0.44 | -2.21 ± 0.35
78 | ACGAAGCAAUAUUACGGCAA | -1.04 ± 0.13 | -0.678 ± 0.13
79 | GUUCAGCAAUAUUACGCUGC | – | -1.76 ± 0.4
80 | GAUUAGCAAUAUUACGGGUU | -2.59 ± 0.16 | -1.14 ± 0.15
81 | UCACAGCAAUAUUACGCGCA | -0.0823 ± 0.068 | 0.0608 ± 0.075
82 | CCCAAGCAAUAUUACGAGGC | -4.03 ± 0.15 | -3.25 ± 0.18
83 | GAUGAGCAAUAUUACGGAAC | – | 0.0424 ± 0.44
84 | GGGAAGCAAUAUUACGGCUC | -0.727 ± 0.12 | 0.0488 ± 0.17
85 | GGUUAGCAAUAUUACGUUUU | -1.03 ± 0.055 | -0.945 ± 0.083
86 | AAGUAGCAAUAUUACGUUGC | -3.66 ± 0.14 | -3.19 ± 0.21
87 | GAUUAGCAAUAUUACGUCCC | -0.907 ± 0.17 | -0.221 ± 0.17
88 | GAUCAGCAAUAUUACGAUAG | -0.506 ± 0.067 | 0.475 ± 0.093
89 | ACAAAGCAAUAUUACGCCCG | -0.191 ± 0.13 | 0.177 ± 0.16
90 | AACAAGCAAUAUUACGUGAC | -2.94 ± 0.095 | -2.34 ± 0.12
91 | AUUAAGCAAUAUUACGUCGU | -1.43 ± 0.094 | -0.383 ± 0.12
92 | GCCCAGCAAUAUUACGUUAU | -1.17 ± 0.079 | -1.29 ± 0.1
93 | CGGGAGCAAUAUUACGCUCG | – | -0.772 ± 0.32
94 | CGGAAGCAAUAUUACGUGGG | -3.23 ± 0.13 | -2.85 ± 0.18
95 | GGCUAGCAAUAUUACGCCGU | -1.49 ± 0.11 | -0.833 ± 0.17
96 | UGACAGCAAUAUUACGGGAA | -1.33 ± 0.12 | -0.827 ± 0.081
97 | AUGAAGCAAUAUUACGCUAU | -1.47 ± 0.091 | -1.21 ± 0.12
